The data set concerns the molecule itself. The data set is described as follows: SEC; size exclusion chromatography of AtRGP2 WT and its F280D/L283D/Y287D mutant (Fig. S12A); column and buffer not given. Background: SEC sorts molecules by how far they enter the pores of the column.

B1: AtRGP2 wildtype, recombinant (enzyme)
chain: not shown
notes: AtRGP2, UniProtKB Q9LFW1; codon-optimized gene cloned into pET32a; Only the vector pET32a and the nickel-sepharose purification are stated; also called AtRGP2 WT; source: E. coli BL21-Gold (DE3), purified (nickel-sepharose, Superdex 200)
Turning to B1, the binding result is recorded as “binds”.

For the origin of these results see article PMC9937993, “Structures of the NDP-pyranose mutase belonging to glycosyltransferase family 75 reveal residues important for Mn^2+ coordination and substrate binding” (The Journal of Biological Chemistry, 2023).
